The record followed here is publication PMC3774380.

By Kd is commonly meant the constant that tells how readily two partners part at equilibrium. Read a high Kd as weaker binding.

The target of this data set is L-glucagon (natural) (human) (UniProt P01275). Kind of data set: competitive pull-down. The conditions noted are these: all L-nucleotides, Selection buffer: 20 mM Tris pH 7.4, 150 mM NaCl, 5 mM KCl, 1 mM MgCl2, 1 mM CaCl2, 0.1% Tween 20, 0.1% CHAPS, 100 ug/ml HSA, 10 ug/ml yeast RNA, 37 C ….
L-glucagon (natural) (human), sequence (P01275 53-81): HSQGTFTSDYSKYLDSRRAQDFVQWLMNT

In turn, “GCAGTGGGGAAATGGGAGGGCTAGGTGGAAGGAATCTGAGCTACTGC [L-257-E1-001-6xR]” yielded a Kd (ribonucleotides at positions 9, 15, 18, 19, 29, 30, rest deoxy) of 6.4 nM.

“GCAGTGGGGAAATGGGAGGGCTAGGTGGAAGGAATCTGAGCTACTGC [L-257-E1-001-R15/29/30]”: under “ribonucleotides at positions 15, 29, 30, rest deoxy”, the dissociation constant (Kd) was found to be 20 nM.

Under “ribonucleotides at positions 5, 11, 14, 15, 25, 26, rest deoxy”, “GCGGGAAATGGGAGGGCTAGGTGGAAGGAATCTGAGCGC [L-257-E1-030-6xR]” came in with a Kd of 6.3 nM.
